Literature values, collected in article PMC2875293.

Molecular target: Sep15 (Homo sapiens) (UniProt O60613)
Sequence (O60613 32-165): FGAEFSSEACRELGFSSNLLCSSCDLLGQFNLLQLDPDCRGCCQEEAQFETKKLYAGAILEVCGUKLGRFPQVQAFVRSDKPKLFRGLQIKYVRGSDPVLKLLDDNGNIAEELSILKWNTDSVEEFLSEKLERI

Chain of GT1 (UDP-glucose:glycoprotein glucosyltransferase 1) (Q9NYU2 43-1555): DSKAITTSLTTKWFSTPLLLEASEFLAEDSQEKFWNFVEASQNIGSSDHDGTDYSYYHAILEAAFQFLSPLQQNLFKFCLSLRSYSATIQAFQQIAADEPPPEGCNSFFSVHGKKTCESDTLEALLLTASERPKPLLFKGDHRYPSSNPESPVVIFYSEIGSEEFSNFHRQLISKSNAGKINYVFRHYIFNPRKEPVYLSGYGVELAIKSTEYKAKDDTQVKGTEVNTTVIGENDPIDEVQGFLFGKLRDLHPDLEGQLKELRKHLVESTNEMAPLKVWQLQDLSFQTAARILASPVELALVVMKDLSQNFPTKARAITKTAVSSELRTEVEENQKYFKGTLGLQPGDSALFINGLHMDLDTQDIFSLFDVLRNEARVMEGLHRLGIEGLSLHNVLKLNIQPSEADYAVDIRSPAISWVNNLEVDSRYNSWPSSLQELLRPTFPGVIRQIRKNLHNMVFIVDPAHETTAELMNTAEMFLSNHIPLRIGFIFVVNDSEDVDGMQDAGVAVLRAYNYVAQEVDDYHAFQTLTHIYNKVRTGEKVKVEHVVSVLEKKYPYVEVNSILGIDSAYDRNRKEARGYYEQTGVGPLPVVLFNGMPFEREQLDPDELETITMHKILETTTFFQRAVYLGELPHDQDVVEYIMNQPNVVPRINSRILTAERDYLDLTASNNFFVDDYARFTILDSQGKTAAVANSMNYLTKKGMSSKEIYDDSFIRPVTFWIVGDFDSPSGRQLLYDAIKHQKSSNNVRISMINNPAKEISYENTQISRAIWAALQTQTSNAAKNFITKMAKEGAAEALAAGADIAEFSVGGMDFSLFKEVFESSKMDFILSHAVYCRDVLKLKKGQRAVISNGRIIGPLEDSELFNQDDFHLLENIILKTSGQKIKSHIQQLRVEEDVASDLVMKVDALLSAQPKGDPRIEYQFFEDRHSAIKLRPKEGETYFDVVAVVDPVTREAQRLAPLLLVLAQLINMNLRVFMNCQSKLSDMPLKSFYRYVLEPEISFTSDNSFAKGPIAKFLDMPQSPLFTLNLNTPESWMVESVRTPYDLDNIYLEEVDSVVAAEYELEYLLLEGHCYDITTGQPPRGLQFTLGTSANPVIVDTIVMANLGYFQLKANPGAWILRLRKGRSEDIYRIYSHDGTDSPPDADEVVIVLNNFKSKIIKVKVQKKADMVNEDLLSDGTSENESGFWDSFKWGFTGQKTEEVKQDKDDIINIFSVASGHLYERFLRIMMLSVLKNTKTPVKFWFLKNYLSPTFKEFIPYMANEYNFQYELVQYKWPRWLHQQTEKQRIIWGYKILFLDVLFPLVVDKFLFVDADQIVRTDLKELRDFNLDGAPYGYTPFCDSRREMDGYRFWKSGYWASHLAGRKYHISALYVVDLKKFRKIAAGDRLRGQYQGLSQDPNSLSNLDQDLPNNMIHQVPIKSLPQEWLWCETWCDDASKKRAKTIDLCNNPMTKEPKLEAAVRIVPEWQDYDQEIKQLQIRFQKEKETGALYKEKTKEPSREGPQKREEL

For “GT1 (UDP-glucose:glycoprotein glucosyltransferase 1) (from UniProt Q9NYU2)”, the Kd is listed as < 0.02 µM.
